Numbering of substitutions follows the chain as printed.
T1: MdWRKY70L (Malus domestica, UniProt A0A7S5EAY7 1-303)
T1 sequence: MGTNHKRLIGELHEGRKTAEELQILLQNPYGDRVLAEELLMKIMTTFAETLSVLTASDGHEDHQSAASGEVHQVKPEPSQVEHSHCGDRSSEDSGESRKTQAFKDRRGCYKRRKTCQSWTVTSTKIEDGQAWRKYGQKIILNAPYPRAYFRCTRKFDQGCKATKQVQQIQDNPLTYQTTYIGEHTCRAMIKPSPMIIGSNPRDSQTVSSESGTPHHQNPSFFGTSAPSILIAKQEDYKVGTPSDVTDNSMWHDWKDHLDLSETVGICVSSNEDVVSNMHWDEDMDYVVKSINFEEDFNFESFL

B1: MdSAG101 W-box hot probe (dsDNA)
DNA 1: TCTATATAAAGAGAGACATATTGACCATTCCGGTATCCTCTTCTCT
DNA 2: AGAGAAGAGGATACCGGAATGGTCAATATGTCTCTCTTTATATAGA
B2: MdSAG101 W-box mutant probe (dsDNA)
DNA 1: B1 DNA 1 with T22C, A24G, C26T
DNA 2: B1 DNA 2 with G21A, T23C, A25G
B3: MdSAG101 W-box cold probe (dsDNA)
DNA 1: B1 DNA 1
DNA 2: B1 DNA 2
B4: MdZAT12 W-box hot probe (dsDNA)
DNA 1: CATTGATCTGGATTTCTGTGCTGACTCAGACTCATCGTGGATGCTT
DNA 2: AAGCATCCACGATGAGTCTGAGTCAGCACAGAAATCCAGATCAATG
B5: MdZAT12 W-box cold probe (dsDNA)
DNA 1: B4 DNA 1
DNA 2: B4 DNA 2
B6: MdZAT12 W-box mutant probe (dsDNA)
DNA 1: B4 DNA 1 with T22G, A24C, T26G
DNA 2: B4 DNA 2 with A21C, T23G, A25C

Key:
MdWRKY70L [1] = target: T1, MdWRKY70L; assay: EMSA; LightShift Chemiluminescent EMSA kit (Thermo); buffer, salt, pH and temperature not stated; settings: protein: recombinant; tags: GST (Results); His (EMSA Methods, pET32a); label: 3' biotin, both strands; blunt
MdWRKY70L [2] = target: T1, MdWRKY70L; assay: competition; 25x, 50x, 100x cold probe vs hot probe N3; LightShift Chemiluminescent EMSA kit (Thermo); buffer, salt, pH and temperature not stated; settings: protein: recombinant; tags: GST (Results); His (EMSA Methods, pET32a); blunt
MdWRKY70L [3] = target: T1, MdWRKY70L; assay: competition; 25x, 50x, 100x cold probe vs hot probe N1; LightShift Chemiluminescent EMSA kit (Thermo); buffer, salt, pH and temperature not stated; settings: protein: recombinant; tags: GST (Results); His (EMSA Methods, pET32a); blunt

Binder | binding result (MdWRKY70L [1]) | also measured
B1 | binds | –
B2 | no binding | –
B3 | – | binding result (MdWRKY70L [2]): binds
B4 | binds | –
B5 | – | binding result (MdWRKY70L [3]): binds
B6 | no binding | –

— article PMC12120888, “Phosphorylation of MdWRKY70L by MdMPK6/02G mediates reactive oxygen accumulation to regulate apple fruit senescence”
